Test results as given in patent US20190127480A1 (Regeneron, published 2019).

Target: T1, Soluble heterodimeric CD3 protein (hCD3-epsilon/hCD3-delta) with either a human Fc tag (hFcΔAdp/hFc) or a … (human, UniProt P07766 23-126; P04234 22-105)
T1 construct: also called hCD3ε/δ; not shown: Fc tag: human (hFcΔAdp/hFc)
Assay: SPR Biacore 25C antigen-capture
Description: (§1) Measurements were conducted on a T200 Biacore™ instrument.
In the antigen-capture format, heterodimeric CD3 protein was captured using a rabbit anti-mouse Fc or mouse anti-human Fc and the respective antibodies were injected over the captured antigen.
(§2) Kinetic association (kₐ) and dissociation (kd) rate constants were determined by processing and fitting the data to a 1:1 binding model using Scrubber 2.0 curve fitting software. Binding dissociation equilibrium constants (KD) and dissociative half-lives (t₁₁₂) were calculated from the kinetic rate constants as: KD (M)=kd/kₐ; and t_{1/2} (min)=(ln 2/(60*kd). NT=not tested; NB=no binding observed.

T1 sequence (P07766 23-126 limits assumed, stated change not applied, chain 1 of 2): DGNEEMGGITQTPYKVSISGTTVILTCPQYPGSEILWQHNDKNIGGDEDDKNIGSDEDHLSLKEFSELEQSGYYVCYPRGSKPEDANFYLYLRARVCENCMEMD
T1 sequence (P04234 22-105 limits assumed, stated change not applied, chain 2 of 2): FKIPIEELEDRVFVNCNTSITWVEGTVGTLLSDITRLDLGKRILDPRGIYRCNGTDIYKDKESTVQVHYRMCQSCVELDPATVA

| Kd [nM] | T½ [min] | koff [s⁻¹] | kon [M⁻¹ s⁻¹] | Binder |
| --- | --- | --- | --- | --- |
| 0.0938 | 941 | 1.23e-05 | 128000 | H2M2779N (antibody, V domains shown, H2M: mouse IgG2 Fc, human variable regions; divalent) VH: EVQLVESGGGLVQPGGSLRLSCAATGFTFDDFTMHWVRQAPGKGLEWVSGISWNSGSIGYVDSVKGRFTISRDNAKNSLYLQMNSLRAEDTALYYCAKDNSGYGYYYYGMDVWGQGTTVTVSS VL: not shown |
| – | 193 | – | – | H1M3544N (antibody, mouse IgG1, V domains shown, H1M: mouse IgG1 Fc, human variable regions; divalent) VH: EVQLVESGGGLVQPGRSLRLSCAASGFTFDDYTMHWVRQVPGKGLEWVSGISWNSGSLAYADSVKGRFTISRDNAKNSLYLQMNSLHPEDTALYYCVKDGSGYGHYSYYGLDVWGQGTTVTVSS VL: not shown |
| 0.0583 | 116 | 9.97e-05 | 1.71e+06 | H2M2689N (antibody, mouse IgG2, V domains shown, H2M: mouse IgG2 Fc, human variable regions; divalent) VH: QVQLVESGGGVVQPGRSLRLSCAASGFTFSRKGMHWVRQAPVKGLEWVAVISYDGSNKYYADSVKGRFTISRDNSKNTLYLQMNSLTAEDTAVYYCAKEGGHDYGGTFDYWGQGTLVTVSS VL: not shown |

Target: T2, Soluble heterodimeric CD3 protein (hCD3-epsilon/hCD3-delta) with a human Fc tag (hFcΔAdp/hFc) or a mouse Fc … (human, UniProt P07766 23-126; P04234 22-105)
T2 construct: also called hCD3ε/δ; not shown: Fc tag: human (hFcΔAdp/hFc); which tag was used in Ta
Assay: SPR Biacore, 25 C, antibody-capture format
Description: as §1
Soluble heterodimeric CD3 protein (hCD3-epsilon/hCD3-delta; SEQ ID NOs:1652/1653) with either a human Fc tag (hFcΔAdp/hFc; SEQ ID NOs:1683/1684) or a mouse Fc tag (mFcΔAdp/mFc; SEQ ID NOs:1685/1686) was injected over the antibody captured surface and the binding response was recorded. Heterodimeric CD3 protein was purified using the method described in Davis et al. (US2010/0331527).
as §2

T2 sequence (P07766 23-126 limits assumed, stated change not applied, chain 1 of 2): as the sequence (P07766 23-126 limits assumed, stated change not applied, chain 1 of 2) above
T2 sequence (P04234 22-105 limits assumed, stated change not applied, chain 2 of 2): as the sequence (P04234 22-105 limits assumed, stated change not applied, chain 2 of 2) above

| Kd [nM] | T½ [min] | koff [s⁻¹] | kon [M⁻¹ s⁻¹] | Binder |
| --- | --- | --- | --- | --- |
| 20.9 | 57 | 0.000202 | 9700 | H2M2690N (antibody, V domains shown, Hybridoma antibody, human variable regions, mouse IgG2 Fc) VH: EVQLVESGGGLVQPGRSLRLSCAASGFTFDDYTMHWVRQAPGKGLEWVSGISWNSGSIGYADSVKGRFTISRDNAKKSLYLQMNSLRAEDTALYYCAKDNSGYGHYYYGMDVWGQGTTVTVAS VL: EIVMTQSPATLSVSPGERATLSCRASQSVSSNLAWYQQKPGQAPRLLIYGASTRATGIPARFSGSGSGTEFTLTISSLQSEDFAVYYCQHYINWPLTFGGGTKVEIK |
| 53.9 | 27 | 0.000434 | 8050 | H1M2692N (antibody, V domains shown, Hybridoma antibody, human variable regions, mouse IgG1 Fc) VH: EVQLVESGGGLVQPGGSLRLSCAASGFSFDDYTMHWVRQPPGKGLEWVSGISWNSGSIGYADSVKGRFTISRDNAKNSLYLQMNSLRAGDTALYYCAKDNSGYGYYYYYGMDVWGQGTTVTVSS VL: EIVMTQSPATLSVSPGERATLSCRASQSVSSNLAWYQQKPGQAPRLLIYGASTRATGIPARFSGSGSGTEFTLTISSLQSEDFAVYYCQQYYNWPLTFGGGTKVEIK |
| 8.82 | 19 | 0.000612 | 69400 | H2M2708N (antibody, V domains shown, Hybridoma antibody, human variable regions, mouse IgG2 Fc) VH: QVQLVESGGGVVQPGRSLRLSCAASGFTFRSFGMHWVRQAPGRGLEWVAMIYFDGKNKYYADSVRGRFTISRDNSKNTLYLEMSSLRAEDTAVYFCARGPGYNWLDPWGQGTLVTVSS VL: EIVMTQSPATLSVSPGERVTLSCRASQSISRNLAWYQQKPGQAPRLLIYGASTRATGVPARFSGSGSGTEFTLTISSLQSEDFAVFHCQQYNNRPLTFGGGTEVEIK |
| 63.5 | 6 | 0.00187 | 29500 | H2M2707N (antibody, V domains shown, Hybridoma antibody, human variable regions, mouse IgG2 Fc) VH: QVQLVESGGGVVQPGRSLRLSCIASGFTFRSYGMHWVRQAPGKGLEWVAMIYYDGNNKYYADSVRGRFTISRDNSKNTLYLQMNSLRADDTAVYFCARGPGYNWLDPWGQGTLVTVSS VL: EIVMTQSPATLSVSPGERATLSCRASQSVSSNLAWYQQKPGQAPRLLIYGASTRATGIPARFSGSGSGTEFTLTISSLQSEDFAVYYCQQYNNRPLTFGGGTKVEIK |
| 20.1 | 56 | 0.000207 | 10300 | H2M2691N (antibody, V domains shown, Hybridoma antibody, human variable regions, mouse IgG2 Fc) VH: EVQLVESGGGLVQPGRSLRLSCAASGFTFDDYTMHWVRQAPGKGLEWVSGISWNSGSIGYADSVKGRFTISRDNAKKSLYLQMNSLRAEDTALYYCAKDNSGYGHYYYGMDVWGQGTTVTVAS VL: EIVMTQSPATLSVSPGERATLSCRASQSVSSNLAWYQQKPGQAPRLLIYGASTRATGIPARFSGSGSGTEFTLTISSLQSEDFAVYYCQHYINWPLTFGGGTKVEIK |
| 11.8 | 13 | 0.000918 | 77900 | H2M2774N (antibody, V domains shown, Hybridoma antibody, human variable regions, mouse IgG2 Fc) VH: QVQLVESGGGVVQPGRSLRLSCVASGFTFRSYGMHWVRQAPGKGLQWVAMIYYDGKNKYYADSVRGRFTISRDNSKNTLYLQMNSLRAEDTAMYFCARGPGYNWLDPWGQGTLVTVSS VL: EIVMTQSPATLSVSPGERATLSCRASQRISSNLAWYQQKPGQAPRLLIYGASTRATGSPARFSGSGSGTEFTLTISSLQSEDVAVYYCQQHNNWPLTFGGGTKVEIK |
| 135 | 3 | 0.00444 | 32900 | H2M2706N (antibody, V domains shown, Hybridoma antibody, human variable regions, mouse IgG2 Fc) VH: QVQLVESGGGVVQPGRSLRLSCAASGFTFRSYAMHWVRQAPGKGLEWVAMVYYDGNNQYYADSVRGRFTISRDNSKNTLYLQMNSLRADDTAVYFCARGPGYNWLDPWGQGTLVTVSS VL: EIVMTQSPATLSVSPGERATLSCRASQSVSRNLAWYQQKPGQAPRLLIYGASTRATGIPARFSGSGSGTDFTLTISSLQSEDFAVYYCQQYNNWPLTFGGGTKVVIK |
| 9.54 | 18 | 0.000651 | 68200 | H2M2885N (antibody, V domains shown, Hybridoma antibody, human variable regions, mouse IgG2 Fc) VH: QVQLVESGGGVVQPGRSLRLSCAASGFTFRSFGMHWVRQAPGRGLEWVAMIYFDGKNKYYADSVRGRFTISRDNSKNTLYLEMSSLRAEDTAVYFCARGPGYNWLDPWGQGTLVTVSS VL: EIVMTQSPATLSVSPGERVILSCRASQSISRNLAWYQQKPGQAPRLLIYGATTRATGVPARFSGSGSGTEFTLTISSLQSEDFAVFYCQQYNNRPLTFGGGTEVEIK |
| 8.98 | 18 | 0.000626 | 69700 | H2M2775N (antibody, V domains shown, Hybridoma antibody, human variable regions, mouse IgG2 Fc) VH: QVQLVESGGGVVQPGRSLRLSCAASGFTFRSFGMHWVRQAPGRGLEWVAMIYFDGKNKYYADSVRGRFTISRDNSKNTLYLEMSSLRAEDTAVYFCARGPGYNWLDPWGQGTLVTVSS VL: EIVMTQSPATLSVSPGERVILSCRASQSISRNLAWYQQKPGQAPRLLIYGATTRATGVPARFSGSGSGTEFTLTISSLQSEDFAVFYCQQYNNRPLTFGGGTEVEIK |
| 11.4 | 15 | 0.000767 | 67200 | H2M2711N (antibody, V domains shown, Hybridoma antibody, human variable regions, mouse IgG2 Fc) VH: QVQLVESGGGVVQPGRSLRLSCAASGFTFRSFGMHWVRQAPGRGLEWVAMIYFDGKNKYYADSVRGRFTISRDNSKNTLYLEMSSLRAEDTAVYFCARGPGYNWLDPWGQGTLVTVSS VL: EIVMTQSPATLSVSPGERATLSCRASQSVSRNLAWYQQKPGQAPRLLIYGASTRATGVPARFSGSGSGTEFTLTISSLQSEDFAVFHCQQYNNRPLTFGGGTEVEIK |
| 11.2 | 15 | 0.000753 | 67200 | H2M2710N (antibody, V domains shown, Hybridoma antibody, human variable regions, mouse IgG2 Fc) VH: QVQLVESGGGVVQPGRSLRLSCAASGFTFRSFGMHWVRQAPGRGLEWVAMIYFDGKNKYYADSVRGRFTISRDNSKNTLYLEMSSLRAEDTAVYFCARGPGYNWLDPWGQGTLVTVSS VL: EIVMTQSPATLSVSPGERATLSCRASQSVSRNLAWYQQKPGQAPRLLIYGASTRATGVPARFSGSGSGTEFTLTISSLQSEDFAVFHCQQYNNRPLTFGGGTEVEIK |
| 4.18 | 4 | 0.00323 | 773000 | H2M2689N (antibody, V domains shown, Hybridoma antibody, human variable regions, mouse IgG2 Fc) VH: QVQLVESGGGVVQPGRSLRLSCAASGFTFSRKGMHWVRQAPVKGLEWVAVISYDGSNKYYADSVKGRFTISRDNSKNTLYLQMNSLTAEDTAVYYCAKEGGHDYGGTFDYWGQGTLVTVSS VL: not shown |
